Experimental data: patent US20160297854A1 (Novartis, published 2016)

Target: T1, human VEGF (human, UniProt P15692 207-395, biotinylated)
T1 construct: also called hVEGF; hVEGF-biotin
T1 sequence: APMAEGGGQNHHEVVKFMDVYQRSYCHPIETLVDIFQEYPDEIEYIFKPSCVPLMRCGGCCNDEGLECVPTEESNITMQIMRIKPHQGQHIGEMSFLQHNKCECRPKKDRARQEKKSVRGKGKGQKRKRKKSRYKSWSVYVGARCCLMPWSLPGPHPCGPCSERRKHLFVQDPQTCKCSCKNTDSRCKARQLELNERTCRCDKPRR
Assay: SPR (Biacore), ligand hVEGF-biotin, 25 C

B1: NVS1j (Fab)
heavy: EVQLVESGGGLVQPGGSLRLSCTASGFSLTDYYYMTWVRQAPGKGLEWVGFIDPDDDPYYATWAKGRFTISRDNSKNTLYLQMNSLRAEDTAVYYCAGGDHNSGWGLDIWGQGTLVTVSSASTKGPSVFPLAPSSKSTSGGTAALGCLVKDYFPEPVTVSWNSGALTSGVHTFPAVLQSSGLYSLSSVVTVPSSSLGTQTYICNVNHKPSNTKVDKRVEPKSCGS
light: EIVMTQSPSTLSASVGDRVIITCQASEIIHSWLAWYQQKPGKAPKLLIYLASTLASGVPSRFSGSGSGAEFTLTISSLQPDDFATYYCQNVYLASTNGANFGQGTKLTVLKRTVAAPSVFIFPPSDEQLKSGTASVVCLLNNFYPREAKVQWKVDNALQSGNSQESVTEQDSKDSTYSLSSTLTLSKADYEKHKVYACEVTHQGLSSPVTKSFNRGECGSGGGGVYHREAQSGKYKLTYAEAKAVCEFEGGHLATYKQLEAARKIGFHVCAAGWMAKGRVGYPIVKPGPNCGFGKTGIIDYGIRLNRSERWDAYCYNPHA
notes: Tag on the C-terminus of the light chain of NVS4; The heavy chain number is printed as '[9]215'
- Kd: 5.64 pM
- koff: 0.000172 s⁻¹
- kon: 3.05e+07 M⁻¹ s⁻¹
